Laboratory results reported in patent US8785135B2, “Mutant G-protein coupled receptors and methods for selecting them” (Heptares Therapeutics Limited, priority 2007, dated 2014).

B1: V360A: NTR point mutant (protein, UniProt P20789 1-424, looked up, variant V360A)
Neurotensin receptor type 1: MHLNSSVPQGTPGEPDAQPFSGPQSEMEATFLALSLSNGSGNTSESDTAGPNSDLDVNTDIYSKVLVTAIYLALFVVGTVGNSVTAFTLARKKSLQSLQSTVHYHLGSLALSDLLILLLAMPVELYNFIWVHHPWAFGDAGCRGYYFLRDACTYATALNVASLSVERYLAICHPFKAKTLMSRSRTKKFISAIWLASALLAIPMLFTMGLQNRSGDGTHPGGLVCTPIVDTATVKVVIQVNTFMSFLFPMLVISILNTVIANKLTVMVHQAAEQGRVCTVGTHNGLEHSTFNMTIEPGRVQALRHGVLVLRAVVIAFVVCWLPYHVRRLMFCYISDEQWTTFLFDFYHYFYMLTNALFYASSAINPILYNLVSANFRQVFLSTLACLCPGWRHRRKKRPTFSRKPNSMSSNHAFSTSATRETLY
B2: P389A: NTR point mutant (protein, UniProt P20789 1-424, looked up, variant P389A)
Neurotensin receptor type 1: MHLNSSVPQGTPGEPDAQPFSGPQSEMEATFLALSLSNGSGNTSESDTAGPNSDLDVNTDIYSKVLVTAIYLALFVVGTVGNSVTAFTLARKKSLQSLQSTVHYHLGSLALSDLLILLLAMPVELYNFIWVHHPWAFGDAGCRGYYFLRDACTYATALNVASLSVERYLAICHPFKAKTLMSRSRTKKFISAIWLASALLAIPMLFTMGLQNRSGDGTHPGGLVCTPIVDTATVKVVIQVNTFMSFLFPMLVISILNTVIANKLTVMVHQAAEQGRVCTVGTHNGLEHSTFNMTIEPGRVQALRHGVLVLRAVVIAFVVCWLPYHVRRLMFCYISDEQWTTFLFDFYHYFYMLTNALFYVSSAINPILYNLVSANFRQVFLSTLACLCAGWRHRRKKRPTFSRKPNSMSSNHAFSTSATRETLY
B3: S373A: NTR point mutant (protein, UniProt P20789 1-424, looked up, variant S373A)
Neurotensin receptor type 1: MHLNSSVPQGTPGEPDAQPFSGPQSEMEATFLALSLSNGSGNTSESDTAGPNSDLDVNTDIYSKVLVTAIYLALFVVGTVGNSVTAFTLARKKSLQSLQSTVHYHLGSLALSDLLILLLAMPVELYNFIWVHHPWAFGDAGCRGYYFLRDACTYATALNVASLSVERYLAICHPFKAKTLMSRSRTKKFISAIWLASALLAIPMLFTMGLQNRSGDGTHPGGLVCTPIVDTATVKVVIQVNTFMSFLFPMLVISILNTVIANKLTVMVHQAAEQGRVCTVGTHNGLEHSTFNMTIEPGRVQALRHGVLVLRAVVIAFVVCWLPYHVRRLMFCYISDEQWTTFLFDFYHYFYMLTNALFYVSSAINPILYNLVAANFRQVFLSTLACLCPGWRHRRKKRPTFSRKPNSMSSNHAFSTSATRETLY
B4: F380A: NTR point mutant (protein, UniProt P20789 1-424, looked up, variant F380A)
Neurotensin receptor type 1: MHLNSSVPQGTPGEPDAQPFSGPQSEMEATFLALSLSNGSGNTSESDTAGPNSDLDVNTDIYSKVLVTAIYLALFVVGTVGNSVTAFTLARKKSLQSLQSTVHYHLGSLALSDLLILLLAMPVELYNFIWVHHPWAFGDAGCRGYYFLRDACTYATALNVASLSVERYLAICHPFKAKTLMSRSRTKKFISAIWLASALLAIPMLFTMGLQNRSGDGTHPGGLVCTPIVDTATVKVVIQVNTFMSFLFPMLVISILNTVIANKLTVMVHQAAEQGRVCTVGTHNGLEHSTFNMTIEPGRVQALRHGVLVLRAVVIAFVVCWLPYHVRRLMFCYISDEQWTTFLFDFYHYFYMLTNALFYVSSAINPILYNLVSANFRQVALSTLACLCPGWRHRRKKRPTFSRKPNSMSSNHAFSTSATRETLY
B5: R395A: NTR point mutant (protein, UniProt P20789 1-424, looked up, variant R395A)
Neurotensin receptor type 1: MHLNSSVPQGTPGEPDAQPFSGPQSEMEATFLALSLSNGSGNTSESDTAGPNSDLDVNTDIYSKVLVTAIYLALFVVGTVGNSVTAFTLARKKSLQSLQSTVHYHLGSLALSDLLILLLAMPVELYNFIWVHHPWAFGDAGCRGYYFLRDACTYATALNVASLSVERYLAICHPFKAKTLMSRSRTKKFISAIWLASALLAIPMLFTMGLQNRSGDGTHPGGLVCTPIVDTATVKVVIQVNTFMSFLFPMLVISILNTVIANKLTVMVHQAAEQGRVCTVGTHNGLEHSTFNMTIEPGRVQALRHGVLVLRAVVIAFVVCWLPYHVRRLMFCYISDEQWTTFLFDFYHYFYMLTNALFYVSSAINPILYNLVSANFRQVFLSTLACLCPGWRHRAKKRPTFSRKPNSMSSNHAFSTSATRETLY
B6: G390A: NTR point mutant (protein, UniProt P20789 1-424, looked up, variant G390A)
Neurotensin receptor type 1: MHLNSSVPQGTPGEPDAQPFSGPQSEMEATFLALSLSNGSGNTSESDTAGPNSDLDVNTDIYSKVLVTAIYLALFVVGTVGNSVTAFTLARKKSLQSLQSTVHYHLGSLALSDLLILLLAMPVELYNFIWVHHPWAFGDAGCRGYYFLRDACTYATALNVASLSVERYLAICHPFKAKTLMSRSRTKKFISAIWLASALLAIPMLFTMGLQNRSGDGTHPGGLVCTPIVDTATVKVVIQVNTFMSFLFPMLVISILNTVIANKLTVMVHQAAEQGRVCTVGTHNGLEHSTFNMTIEPGRVQALRHGVLVLRAVVIAFVVCWLPYHVRRLMFCYISDEQWTTFLFDFYHYFYMLTNALFYVSSAINPILYNLVSANFRQVFLSTLACLCPAWRHRRKKRPTFSRKPNSMSSNHAFSTSATRETLY
B7: N370A: NTR point mutant (protein, UniProt P20789 1-424, looked up, variant N370A)
Neurotensin receptor type 1: MHLNSSVPQGTPGEPDAQPFSGPQSEMEATFLALSLSNGSGNTSESDTAGPNSDLDVNTDIYSKVLVTAIYLALFVVGTVGNSVTAFTLARKKSLQSLQSTVHYHLGSLALSDLLILLLAMPVELYNFIWVHHPWAFGDAGCRGYYFLRDACTYATALNVASLSVERYLAICHPFKAKTLMSRSRTKKFISAIWLASALLAIPMLFTMGLQNRSGDGTHPGGLVCTPIVDTATVKVVIQVNTFMSFLFPMLVISILNTVIANKLTVMVHQAAEQGRVCTVGTHNGLEHSTFNMTIEPGRVQALRHGVLVLRAVVIAFVVCWLPYHVRRLMFCYISDEQWTTFLFDFYHYFYMLTNALFYVSSAINPILYALVSANFRQVFLSTLACLCPGWRHRRKKRPTFSRKPNSMSSNHAFSTSATRETLY
B8: D345A: NTR point mutant (protein, UniProt P20789 1-424, looked up, variant D345A)
Neurotensin receptor type 1: MHLNSSVPQGTPGEPDAQPFSGPQSEMEATFLALSLSNGSGNTSESDTAGPNSDLDVNTDIYSKVLVTAIYLALFVVGTVGNSVTAFTLARKKSLQSLQSTVHYHLGSLALSDLLILLLAMPVELYNFIWVHHPWAFGDAGCRGYYFLRDACTYATALNVASLSVERYLAICHPFKAKTLMSRSRTKKFISAIWLASALLAIPMLFTMGLQNRSGDGTHPGGLVCTPIVDTATVKVVIQVNTFMSFLFPMLVISILNTVIANKLTVMVHQAAEQGRVCTVGTHNGLEHSTFNMTIEPGRVQALRHGVLVLRAVVIAFVVCWLPYHVRRLMFCYISDEQWTTFLFAFYHYFYMLTNALFYVSSAINPILYNLVSANFRQVFLSTLACLCPGWRHRRKKRPTFSRKPNSMSSNHAFSTSATRETLY

Assay: Thermostability of NTR and mutants (3H-neurotensin binding)
Format: physicochemical
Details: Ligand(+) format
Procedure: FIG. 12 Flow chart showing the two different assay formats of ligand (+) and ligand (−) used to determine receptor thermostability.
• 1. 340 site-directed mutants have been made between residues 61-400 of NTR. • 2. Initially, all of these mutants were assayed for thermostability using an assay measuring ^3H-neurotensin (agonist) binding after the heating step. […] Mutants tested for thermostability by heating in the absence of the agonist were re-tested using a slightly different assay where the mutants were heated in the presence of ^3H-neurotensin (Ligand(+) format in FIG. 12). […] All of these also have increased thermostability. • 5. Preferred combinations are • a. Nag7m F358A+A86L+I260A+F342A Tm 51° C. (neurotensin bound) • b. Nag7n F358A+H103A+I260A+F342A Tm 51° C. (neurotensin bound) • Wildtype NTR has a Tm of 35° C. with neurotensin bound.

Molecule | thermostability, heated in the presence of 3H-neurotensin
B1 | improved thermostability
B2 | improved thermostability
B3 | improved thermostability
B4 | improved thermostability
B5 | improved thermostability
B6 | improved thermostability
B7 | improved thermostability

Same assay, conditions: heated in the absence of the agonist

Molecule | thermostability, 3H-neurotensin (agonist) binding after the heating step
B8 | small but significant increase in thermostability
